Assay results published in US20240383986A1 (OXFORD UNIVERSITY INNOVATION, published 2024).
Where a chain is given by its changes, count along the chain named. One block for each molecule: values may come before it.

Legend:
[1] = biological target: human CD1a expressed on cells (with human β2M) (human) (UniProt P06126)
[2] = biological target: human CD1a expressed on cells (with human β2M) (human) (UniProt P06126); experiment: flow cytometry of ear skin cells of a CD1a transgenic mouse given antibody 116 100 µg i.p. on days 0, 2 and 4 (row 'CD1a : OX116'), HI149 staining on day 5; the cloud lies on the lower edge of the gate
[3] = biological target: human CD1a expressed on cells (with human β2M) (human) (UniProt P06126); experiment: flow cytometry of ear skin cells of a CD1a transgenic mouse given isotype control (row 'CD1a : iso'), HI149 staining; the WT mouse panel prints 0
[4] = biological target: human CD1a expressed on cells (with human β2M) (human) (UniProt P06126); experiment: flow cytometry of ear skin cells of a CD1a transgenic mouse given isotype control (panel 'CD1a : iso'), SK9 staining; the WT mouse panel prints 1.30
[5] = biological target: human CD1a expressed on cells (with human β2M) (human) (UniProt P06126); experiment: flow cytometry of ear skin cells of a CD1a transgenic mouse given antibody 116 100 µg i.p. on days 0, 2 and 4 (panel 'CD1a : OX116'), SK9 staining on day 5
[6] = biological target: human CD1a expressed on cells (with human β2M) (human, UniProt P06126 17-327; P61769 21-119); experiment: cell-based or functional assay
[7] = biological target: T1, human CD1c expressed on HEK-293 cells (with human β2M) (human, UniProt P29017 18-333; P61769 21-119); experiment: flow cytometry, transfected HEK-293 cells
T1 construct: whole, on cells; also called HEK-CD1c

[8] = biological target: T2, human CD1b expressed on HEK-293 cells (with human β2M) (human, UniProt P29016 18-333; P61769 21-119); experiment: flow cytometry, transfected HEK-293 cells
T2 construct: whole, on cells; also called HEK-CD1b

[9] = biological target: T3, human CD1d expressed on HEK-293 cells (with human β2M) (human, UniProt P15813 20-335; P61769 21-119); experiment: flow cytometry, transfected HEK-293 cells
T3 construct: whole, on cells; also called HEK-CD1d

IC50 of inhibition of the polyclonal T cell IFNγ ELISpot response to CD1a-K562 (n=6 donors) [1]: 1.97 µg/mL
Molecule: OKT6 (antibody)

IC50 of inhibition of the polyclonal T cell IFNγ ELISpot response to CD1a-K562 (n=6 donors) [1]: 1.14 µg/mL
CD1a+ gate (percent of plotted cells) [2]: 46.6%
CD1a+ gate (percent of plotted cells) [3]: 82.2%
Molecule: HI149 (antibody)

IC50 of inhibition of the polyclonal T cell IFNγ ELISpot response to CD1a-K562 (n=6 donors) [1]: 6960 µg/mL
CD1a+ gate (percent of plotted cells) [4]: 84.9%
CD1a+ gate (percent of plotted cells) [5]: 87.4%
Molecule: SK9 (antibody)

IC50 of inhibition of the polyclonal T cell IFNγ ELISpot response to CD1a-K562 (n=6 donors) [6]: 0.155 µg/mL
binding result [7]: no binding (tested: up to 100 µg/ml)
binding result [8]: no binding (tested: up to 100 µg/ml)
binding result [9]: no binding (tested: up to 100 µg/ml)
B1: 110 (VR12112) (antibody, V domains shown)
VH: QSVEESGGRLVTPGTPLTLTCTVSGFSLSSYAMIWVRQAPGKGLEWIGIINSSDNTHYATWAKGRFTISKTSTTVDLKITSPTTEDTATYFCARDPYDYGYGWYFDLWGPGTLVTVSS
VL: AQVLTQTPSPVSAAVGGTVTINCQASQSVFNNKNLAWYQQKPGQPPKLLIYKASTLASGVSSRFKGSGSGTQFALTISGVQCDDAATYYCQGEFSCSSTDCVTFGGGTEVVVK

IC50 of inhibition of the polyclonal T cell IFNγ ELISpot response to CD1a-K562 (n=6 donors) [6]: 0.141 µg/mL
binding result [7]: no binding (tested: up to 100 µg/ml)
binding result [8]: no binding (tested: up to 100 µg/ml)
binding result [9]: no binding (tested: up to 100 µg/ml)
B2: 116 (VR12117) (antibody, V domains shown)
VH: QSVEESGGRLVTPGTPLTLTCTVSGFSLSNYAMSWVRQAPGKGLEWIGIIYTTGFTYYASWVKGRFTISKTSTTVDLKITSPTTEDTATYFCARGLATYVSPPTRLDLWGQGTLVTVSS
VL: AQVLTQTPSPVSAAVGGTVTINCQASQSIYNSKNLAWYQQKPGQPPKLLIYSASTLASGVPSRFKGSGSGTQFTLTISDLECDDAATYYCQGEFSCSSVDCATFGGGTEVVVK
notes: also called OX116

IC50 of inhibition of the polyclonal T cell IFNγ ELISpot response to CD1a-K562 (n=6 donors) [6]: 1.04 µg/mL
binding result [7]: no binding (tested: up to 100 µg/ml)
binding result [8]: no binding (tested: up to 100 µg/ml)
binding result [9]: no binding (tested: up to 100 µg/ml)
B3: 111 (VR12113) (antibody, V domains shown)
VH: QSVEESGGRLVTPGTPLTLTCTASGFSLSTYAMSWVRQAPGKGLEWIGIISSSGSTYYASWAKGRFTISKTSTTVDLKITSPTTEDTATYFCARETWYWLDLWGQGTLVTVSS
VL: AVEMTQTPASVSAAVGGTVTINCQASEDIYSNLAWYQQKPGQPPKLLIYGASTLASGVPSRFKGSGSGTEYTLTISGVQCDDAATYYCQCAYDSSSYGTPFGGGTEVVVK

IC50 of inhibition of the polyclonal T cell IFNγ ELISpot response to CD1a-K562 (n=6 donors); table row '77' [6]: 0.181 µg/mL
binding result [7]: no binding (tested: up to 100 µg/ml)
binding result [8]: no binding (tested: up to 100 µg/ml)
binding result [9]: no binding (tested: up to 100 µg/ml)
B4: 77A (VR11851) (antibody, V domains shown)
VH: QSVEESGGRLVTPGTPLTLTCTVSGFSLSSYAMSWVRQAPGKGLEWIGIISSSGTTYYASWAKGRFTISKTSTTVDLKITSPTTEDTATYFCARVDYYSSGWGGLWGPGTLVTVSS
VL: B3 VL with V11M, N22K, A91T, S94T, T99N, P100T, V107M, K110E
